This passage reports binding and stoichiometry N results from article PMC11633110.

In series [1] the target is T1, SydR' (WT, CC) (Sinorhizobium meliloti Rm2011) (UniProt Q92XY2).
T1 sequence: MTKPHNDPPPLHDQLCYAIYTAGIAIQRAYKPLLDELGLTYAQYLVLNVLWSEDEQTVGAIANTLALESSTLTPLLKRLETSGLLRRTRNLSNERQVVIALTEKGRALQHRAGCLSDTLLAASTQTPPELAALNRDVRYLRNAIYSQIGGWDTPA
Description: EMSA. The conditions noted are these: 10 mM Tris-HCl pH 8, 50 mM KCl, 0.5 mM EDTA, 10% glycerol, 0.5 mM DTT, 10 nM DNA, 25°C 25 min; 8% PAGE in 0.5x TBE.

In series [2] the target is His-tagged recombinant SydR (SydR′), wild type (Sinorhizobium meliloti). In words: cross-linking; intersubunit disulfide bond assay: proteins reduced in 100 mM DTT for 2 h, desalted, oxidised with 100 mM NaOCl for 30 min, 100 mM N-ethylmaleimide for 2 h at room temperature, 10% non-reducing SDS-PAGE; shows covalent (disulfide) dimers only.
Series [3] has as its target SydRC16S (SC) (Sinorhizobium meliloti). The description is as above.
The target in series [4] is SydRC114S (CS) (Sinorhizobium meliloti). Described as above.

Take “CCGCCTTCCAGATCAGTACCGGCTTGCTTAGCCAAGCGCTCGGCCAAACGGACTGAGGCCTCCGTTGCGATCCACCCAGGCGACACCCGCACGACCCGGATACCTTTGGACGAAATTTCCTTCGCTATCGACTTGCCG (double strand) [SMa2019 internal fragment, 138 bp]”: the binding entry in series [1] is listed as “no binding”.
On to “His-tagged recombinant SydR (SydR′), wild type (natural protein)”, for which the stoichiometry N (in general, the number of molecules, sites or subunits per partner or assembly) in series [2] stood at 2.
With SydRC16S (SC) (natural protein), in series [3], the stoichiometry N is 2.
For the substance SydRC114S (CS) (natural protein), the stoichiometry N in series [4] is 2.
Take “TCTGGGCTCCTTTGCGCACCAATATAATCAAGATTACCGCGAAAACCAATATCGCGATAAGAGATATGTTGACGAGCAGTTCAATATCTGACAACTTAAATATATCGCGATAACAGTTATCGCTATCAACGAAAGGAAAAAGCC (double strand) [sydR-SMa2023 intergenic region, 144 bp]”: the binding entry in series [1] is “binds”.
